Reference: the DeepSol protein solubility set

Assay: soluble on expression in E. coli; label from the status in PepcDB or PDB records
For “MGSDKIHHHHHHMVEVLTESNQSLDSLEALCSKYRIERGIVATVVDLNERILAELAALPFPLLWLNHETPLPVGNLYETPETLGYDRIAAVVGANEQFPHNDILVIDAGTCITYEFIDSKGQYHGGNISPGMQMRYKALHQFTGRLPLIDSNGRKLPMGRDTETAIRAGVLKGMEYEISGYIEAMKHKYPELLVFLTGGDDFSFDSSVKSAIFADRFLVLKGLNRILNYNNGRI”, the “soluble on expression in E. coli” value was “not soluble”. In the case of “MGSDKIHHHHHHMAETIETMGGQAALDHVSRLLSLKVDIRGLEHLPAEGRVVIVANHPTGIGDGVAVYDALKTHRPDIVFYANADAHRVCPRFDDVLIPVEWVEEKRSRERMRLTLSMTREAMEAERALMIFPAGRLAVTDAEGRLSDPPWMSSAVSIARKYGAPIAPIHLEGPWSTLFHLFGRLSRELRDITLFHELLNKTGRRFSLTIGPPVDPEALPRDAEQATEVLKRYVERQLPNEPTSPLT”, the “soluble on expression in E. coli” value was “not soluble”. With “MLPKSSLKETQQALANAIRLGNADPLNGYAASRLAVYTRLVRNNAFGFIDRCFVEAPLHIEPEYWKNAKENFVQNGNAHSPYFQDIAGEFLLFCQEKEIFDTNILALMDFENTQLLAEVSLAKVPEKFEWNRHSVMQLSGAAYLKSYDVDFLSSDFKQFDDTPIQAIIWRDSDFRIQQQILSELDYWLLSYLQEQPNSLENVLSALNTMVEDSTSIIPLLEQVWMKWVTSEVIYPEQR” the “soluble on expression in E. coli” value was “not soluble”. In the case of “MGSDKIHHHHHHMKITLHGVAETLLITLYIRAKDAMAKHPILNDQKSLAIVEQIEYDFDKFDNSEASFYATLARIRVMDREIKKFIRENPNSQILSIGCGLDTRFERVDNGQIRWYNLDLPEVMEIRKLFFEEHERVTNIAKSALDETWTREVNPQNAPFLIVSEGVLMFLKEDDVETFLHILTNSFSQFMAQFDLCHKEMINKGKQHDTVKYMDTEFQFGITDGHEIVDLDPKLKQINLINFTDEMSKFELGTLRSLLPTIRKFNNCLGVYEYKASEKK”, the “soluble on expression in E. coli” value was “not soluble”. With “MADPWQECMDYAVTLAGQAGEVVREALKNEMNIMVKSSPADLVTATDQKVEKMLITSIKEKYPSHSFIGEESVAAGEKSILTDNPTWIIDPIDGTTNFVHGFPFVAVSIGFVVNKKMEFGIVYSCLEDKMYTGRKGKGAFCNGQKLQVSHQEDITKSLLVTELGSSRTPETVRIILSNIERLLCLPIHGIRGVGTAALNMCLVAAGAADAYYEMGIHCWDVAGAGIIVTEAGGVLLDVTGGPFDLMSRRVIASSNKTLAERIAKEIQIIPLQRDDED” the “soluble on expression in E. coli” value was “soluble”. In the case of “MRKELVFVLLALFLCAGCNGNKKKMNGEHDLDAANITLDDHTISFYYNWYGNPSVDGEMKHWMHPIALAPGHSGDVGAISGLNDDIACNFYPELGTYSSNDPEIIRKHIRMHIKANVGVLSVTWWGESDYGNQSVSLLLDEAAKVGAKVCFHIEPFNGRSPQTVRENIQYIVDTYGDHPAFYRTHGKPLFFIYDSYLIKPAEWAKLFAAGGEISVRNTKYDGLFIGLTLKESELPDIETACMDGFYTYFAATGFTNASTPANWKSMQQWAKAHNKLFIPSVGPGYIDTRIRPWNGSTTRDRENGKYYDDMYKAAIESGASYISITSFNEWHEGTQIEPAVSKKCDAFEYLDYKPLADDYYLIRTAYWVDEFRKARSASEDVQLEHHHHHH”, the “soluble on expression in E. coli” value was “soluble”. In the case of “MGSDKIHHHHHHMNIRIGCSGWYYPHWAGKFYPSDLNKSEWFRYYAQKFDTVEINSTFYSFPNAARVRSWVKGSPENFVFSVKVNRTITHVKRLKDCDEEIGLFYEIIGSLGKMLGCVLFQFPPSFKYSHDNLIMIEKALDQRFCNVVEFRNISWFSEDARCDLEKSDLHVVAVSSERIPLWIKEDSVVYVRLHGNVNGYATDYNEEYLTDLAQRIIDVKPQSLYVYFNNDYSGYAPKNAIMLKSIINNLIL”, the “soluble on expression in E. coli” value was “not soluble”. In the case of “DYRPGGFHPAFKGEPYKDARYILVRKLGWGHFSTVWLAKDMVNNTHVAMKIVRGDKVYTEAAEDEIKLLQRVNDADNTKEDSMGANHILKLLDHFNHKGPNGVHVVMVFEVLGENLLALIKKYEHRGIPLIYVKQISKQLLLGLDYMHRRCGIIHTDIKPENVLMEIVDSPENLIQIKIADLGNACWYDEHYTNSIQTREYRSPEVLLGAPWGCGADIWSTACLIFELITGDFLFEPDEGHSYTKDDDHIAQIIELLGELPSYLLRNGKYTRTFFNSRGLLRNISKLKFWPLEDVLTEKYKFSKDEAKEISDFLSPMLQLDPRKRADAGGLVNHPWLKDTLGMEEIRVPDRELYGSGSDIPGWFEEVRDHKRH”, the “soluble on expression in E. coli” value was “soluble”. With “SEPIYEEYLANHGTIVKPYYWLSFSLDCSNCPYHIRTGEEARVSLTEFCQIFGFPYGTTFPQTKHLTFYELKTSSGSLVQKGHASSCTGNYIHPESMLFEMNGYLDSAIYNNDSIRHIILYSNNSPCNEANHCCISKMYNFLITYPGITLSIYFSQLYHTEMDFPASAWNREALRSLASLWPRVVLSPISGGIWHSVLHSFISGVSGSHVFQPILTGRALADRHNAYEINAITGVKPYFTDVLLQTKRNPNTKAQEALESYPLNNAFPGQFFQMPSGQLQPNLPPDLRAPVVFVLVPLRDLPPMHMGQNPNKPRNIVRHLNMPQMSFQETKDLGRLPTGRSVEIVEITEQFASSKEADEKKKKKGKK” the “soluble on expression in E. coli” value was “soluble”. In the case of “MGSDKIHHHHHHMYEHQTYEAILVRMLARVPETIDKREGSLIYDALAPGAAELAQAYAELVVNNNLSFADTASGEFLTRRAAEFGIKRKVATKAWRRGGFLDSNNALLNIPLGSRYSIGGLNYTAIEQISTGAYVLECETAGTAGNQQFGDLLPIAYVNSLARAELTEVLVPGEDEETDEALLSRYYETVNEPAFGGNMADYRQKVNAINGVGGTKVFPTWAGGGTVKCTIIASDWAKPSPELVNEVQSTMDPEENQGMGLGQAPIGHAVTIAGVDKVTVDVETTLTLAPGVTPGQVQSDVEAILDAYLLEQRKTWAAQTQIIIRMAQIDARMLTVQGVEDVTGTKLNGTEANFLLDEEEIPILGTVIINE”, the “soluble on expression in E. coli” value was “not soluble”. With “MGSDKIHHHHHHMFKRETKDFINIDPLQTGGKLTEEARQALLEWGDGYSVCDFCTTGRLDEIKTPPIHDFIHNQLPKFLGCDVARVTNGAREAKFAVMHSLAKKDAWVVMDENCHYSSYVAAERAGLNIALVPKTDYPDYAITPENFAQTIEETKKRGEVVLALITYPDGNYGNLPDVKKIAKVCSEYDVPLLVNGAYAIGRMPVSLKEIGADFIVGSGHKSMAASGPIGVMGMKEEWAEIVLRRSEKYKNKEVELLGCTARGATIITLMASFPHVRERIKRWDEEVEKARRFAAEMEKLGIKQLGDNPHNHDLMFFHAEVLYEISKKAKGGRFFLYRELKSRKIHGIKPGLTRYFKLSTYGLSDEEVDYVLNAFKEIIEKYS” the “soluble on expression in E. coli” value was “not soluble”. For “MSFEAFTELYIRDVKNRLKENTWLTKEHIIRTKILPFFGKLKISEISTKEIITWQNEMLAYRDEKKKPYSQTYLKTLHNQLSAIFNHAVRYYELRSNPAAKVGNMGSELEHHHHHH”, the “soluble on expression in E. coli” value was “not soluble”. With “MSLEVVLWDFDGVIFDSMHLKNEGFRALFQKHGNKNQESLKQFEVYHYQSGGISRNEKIQYFYNEILKTPIAQEEVDALALEFGTIIEQKLFDREHLNSEVMAFIDKHYKNHVFHIASAALHSELQVLCEFLGIIKYFKSVEGSPPNKPKIIANIIQKYAYNPGRMLMIGDSVNDYESAQANEVAFLGYNSKVLKNLVGQNGYQGKYLESFKGFDLQNFIKEGHHHHHH” the “soluble on expression in E. coli” value was “soluble”. In the case of “AIADTRSLQDFQDLCTFDVFKSFGHYYGYGVDQQALIDQEFKRIKGVTYLDHAGTTLFPESLIKGFHDDIPRNVYGNPHSHNSSSRLTHDTVESVRYKILAHFNTSPEDYSVIFTSGCTAALKLVADTFPWKPMSNKEPGSQFCYLTDNHTSVVGIRGATALQGVGTISVSPREVETRARNKTQTNGEEECSTPHLFCYPAQSNFSGRKYSLSYVKGIQSQQLYPACEHHGQWFVLLDAACFVSCSPLDLSQYPADFVPISFYKMFGFPTGLGALLVRNEAAEVLRKTYFGGGTAAAYLVEENYFIPKPNLASR”, the “soluble on expression in E. coli” value was “soluble”. In the case of “MGSDKIHHHHHHMKGIEIVNYGGPEVAKVRTFSSPVRRSGEVMIQVVASSINPVDIKYMTPETIQKIPSFPAILGWDIAGIIIEADKNSNFSAGERVVAFHPQGSWQQLVTASENQVVKLPDNIDFISGGSIPLAASTALQALRRLRLEPGERLLVTGAAGSVGYYALQFALKMGVKASGLVRNKNQKMSINLLDTEIYTNDDPIPEFDAVFDTAGVLNRIDVIHKGGRLVTVSDEQIDPQVLKHTSFAEHNYVRVNKEDLEEIVHLVSEAKIETRVAKIYSFNNVQEALAQAIKSGNNGKVMLIF”, the “soluble on expression in E. coli” value was “not soluble”.
